Data as given in PMC11417369, “DNA sequence and chromatin differentiate sequence-specific transcription factor binding in the human malaria parasite Plasmodium falciparum”.

B1: CACACA_negctrl_site1459 (dsDNA)
DNA 1: AAAAATATATATATATTTCTTCTTTGTTAAAATGTA
DNA 2: TACATTTTAACAAAGAAGAAATATATATATATTTTT
B2: CACACA_negctrl_site869 (dsDNA)
DNA 1: TTCTTACACAAAAAAATGAAATCAATCAAAAAAAAA
DNA 2: TTTTTTTTTGATTGATTTCATTTTTTTGTGTAAGAA
B3: CACACA_negctrl_site758 (dsDNA)
DNA 1: TTTTAAAAAATAAAATATTATTGAAGTAAAATATGA
DNA 2: TCATATTTTACTTCAATAATATTTTATTTTTTAAAA
B4: CACACA_negctrl_site966 (dsDNA)
DNA 1: TATTTGTTTGAATTTTTTTTTTTTTTTTTTTATGTG
DNA 2: CACATAAAAAAAAAAAAAAAAAAATTCAAACAAATA
B5: CACACA_negctrl_site76 (dsDNA)
DNA 1: TAAATGTGAAATTTTATATTTTATATAATATACAAT
DNA 2: ATTGTATATTATATAAAATATAAAATTTCACATTTA
B6: CACACA_negctrl_site577 (dsDNA)
DNA 1: TCATATTATAAATAAATAAATAAATATATATATATA
DNA 2: TATATATATATATTTATTTATTTATTTATAATATGA
B7: CACACA_negctrl_site1364 (dsDNA)
DNA 1: ATTTTTTTTTTTTTTTTTTTTTTTTTTTTTTTTTTT
DNA 2: AAAAAAAAAAAAAAAAAAAAAAAAAAAAAAAAAAAT
B8: CACACA_negctrl_site1204 (dsDNA)
DNA 1: ATTTTTTTTTTTTTTTTTCATTTTTTTTTTTTTTTT
DNA 2: AAAAAAAAAAAAAAAATGAAAAAAAAAAAAAAAAAT
B9: CACACA_negctrl_site1094 (dsDNA)
DNA 1: TTTTATTGTTTTTTTTTTTTTTCTTTTTTTTTTTTT
DNA 2: AAAAAAAAAAAAAGAAAAAAAAAAAAAACAATAAAA
B10: CACACA_negctrl_site437 (dsDNA)
DNA 1: ATTATATTAATATATATATATATATATATAATAATA
DNA 2: TATTATTATATATATATATATATATATTAATATAAT
B11: CACACA_negctrl_site1109 (dsDNA)
DNA 1: TATATATCTGTGAAAATACTTAAATTGTTATAAAAA
DNA 2: TTTTTATAACAATTTAAGTATTTTCACAGATATATA
B12: CACACA_negctrl_site856 (dsDNA)
DNA 1: TTTCCTGGTCAAGGGGTTACGGTTACGTCCTCTTGC
DNA 2: GCAAGAGGACGTAACCGTAACCCCTTGACCAGGAAA
B13: CACACA_negctrl_site1319 (dsDNA)
DNA 1: ATTTTTTTTTTTTTTTTTTTTTTTTATGAATGTTAT
DNA 2: ATAACATTCATAAAAAAAAAAAAAAAAAAAAAAAAT
B14: CACACA_negctrl_site1488 (dsDNA)
DNA 1: AATTCTTTTTATATATTAAATATTATTAATAAGTCA
DNA 2: TGACTTATTAATAATATTTAATATATAAAAAGAATT
B15: CACACA_negctrl_site788 (dsDNA)
DNA 1: GTATATATCTAAAAATATATATATATATATATATAT
DNA 2: ATATATATATATATATATATATTTTTAGATATATAC
B16: CACACA_negctrl_site828 (dsDNA)
DNA 1: ATATATATATATGTTTATTTATTTGAACGATTGTGG
DNA 2: CCACAATCGTTCAAATAAATAAACATATATATATAT
B17: CACACA_negctrl_site1530 (dsDNA)
DNA 1: TATTTTGAAATGGAAAGGATATAGAACTTAAACAAA
DNA 2: TTTGTTTAAGTTCTATATCCTTTCCATTTCAAAATA
B18: CACACA_negctrl_site1042 (dsDNA)
DNA 1: ATCAAAAAAAAAAAATTTTTTTTTTTGTTTGTTTCC
DNA 2: GGAAACAAACAAAAAAAAAAATTTTTTTTTTTTGAT
B19: CACACA_negctrl_site1361 (dsDNA)
DNA 1: TTAAAATTCAAAAAAAAAAATCAGAATATCAGAAAA
DNA 2: TTTTCTGATATTCTGATTTTTTTTTTTGAATTTTAA
B20: CACACA_negctrl_site485 (dsDNA)
DNA 1: AAAGTGGCCATATATTTTTTTTTTTTTTTCCTTATT
DNA 2: AATAAGGAAAAAAAAAAAAAAATATATGGCCACTTT
B21: CACACA_negctrl_site279 (dsDNA)
DNA 1: TGTTTTTGTGATCATATGAAAAAATTACCTACAAGG
DNA 2: CCTTGTAGGTAATTTTTTCATATGATCACAAAAACA
B22: CACACA_negctrl_site481 (dsDNA)
DNA 1: TGACTTTTTTTTTTTTTTTTTTTTTTTTATCTTTTT
DNA 2: AAAAAGATAAAAAAAAAAAAAAAAAAAAAAAAGTCA
B23: CACACA_negctrl_site1371 (dsDNA)
DNA 1: ATAATTAGTTCAATTTTTTTTTTTTTTTTTTTTTTT
DNA 2: AAAAAAAAAAAAAAAAAAAAAAATTGAACTAATTAT
B24: CACACA_negctrl_site1570 (dsDNA)
DNA 1: TTTTTTTTTTTTTTTTTTTTTTTTTTTTTTTGGGGG
DNA 2: CCCCCAAAAAAAAAAAAAAAAAAAAAAAAAAAAAAA
B25: CACACA_negctrl_site1097 (dsDNA)
DNA 1: ATATTTTTAGGTGATTATTATTCGGAGAAGCGAATT
DNA 2: AATTCGCTTCTCCGAATAATAATCACCTAAAAATAT
B26: CACACA_negctrl_site1773 (dsDNA)
DNA 1: TGGTTATTTATCTTTATTATAAATATTTACAAATAA
DNA 2: TTATTTGTAAATATTTATAATAAAGATAAATAACCA
B27: CACACA_negctrl_site1471 (dsDNA)
DNA 1: TGGATTTTTTGATTTTTGTTTTTCTTCTTTCCCCCC
DNA 2: GGGGGGAAAGAAGAAAAACAAAAATCAAAAAATCCA
B28: CACACA_negctrl_site39 (dsDNA)
DNA 1: AATATATCAAAAATTGGATAGTTTCTTATAAAAAAT
DNA 2: ATTTTTTATAAGAAACTATCCAATTTTTGATATATT
B29: CACACA_negctrl_site1687 (dsDNA)
DNA 1: TATTGATAATTTTATATATACATACATAAATAAATA
DNA 2: TATTTATTTATGTATGTATATATAAAATTATCAATA
B30: CACACA_negctrl_site19 (dsDNA)
DNA 1: TTAAATTCGTCATTTTAAAATAATACAAAAGTTCAA
DNA 2: TTGAACTTTTGTATTATTTTAAAATGACGAATTTAA
B31: CACACA_negctrl_site980 (dsDNA)
DNA 1: ATTTTTAAGCATATCAAAAAAAAAAAAAAAATTAAT
DNA 2: ATTAATTTTTTTTTTTTTTTTGATATGCTTAAAAAT
B32: CACACA_negctrl_site401 (dsDNA)
DNA 1: TGTTAATATATCATTATGTTATAGGTTCAGCTGGGA
DNA 2: TCCCAGCTGAACCTATAACATAATGATATATTAACA
B33: CACACA_negctrl_site643 (dsDNA)
DNA 1: TTTTAAAAAATATAATAATATAAATATGTTTTATAC
DNA 2: GTATAAAACATATTTATATTATTATATTTTTTAAAA
B34: CACACA_negctrl_site1132 (dsDNA)
DNA 1: ATGTAATCATTTTCGACTTTTTTTTTTTTTTTTTTT
DNA 2: AAAAAAAAAAAAAAAAAAAGTCGAAAATGATTACAT
B35: CACACA_negctrl_site147 (dsDNA)
DNA 1: GATTACCTTTTTTTTTTTTTTTTTTTTTTTTTTTTC
DNA 2: GAAAAAAAAAAAAAAAAAAAAAAAAAAAAGGTAATC
B36: CACACA_negctrl_site1800 (dsDNA)
DNA 1: TTTTAACGTAATTCAAATGAGCAGAATTTTTTAAAA
DNA 2: TTTTAAAAAATTCTGCTCATTTGAATTACGTTAAAA
B37: CACACA_negctrl_site313 (dsDNA)
DNA 1: ATAAACAAACATAAATCTGATTTTAATTTTTTTAAG
DNA 2: CTTAAAAAAATTAAAATCAGATTTATGTTTGTTTAT
B38: CACACA_negctrl_site1716 (dsDNA)
DNA 1: TTTATAGTTTTAAACAAAGTAATACAAATGTATATA
DNA 2: TATATACATTTGTATTACTTTGTTTAAAACTATAAA
B39: CACACA_negctrl_site1802 (dsDNA)
DNA 1: TTATAATAAATATTTATTATATATAATATATATTAC
DNA 2: GTAATATATATTATATATAATAAATATTTATTATAA
B40: CACACA_negctrl_site386 (dsDNA)
DNA 1: TCTTACAAGGAACTAATAAAATTGTAGTTTGTATTT
DNA 2: AAATACAAACTACAATTTTATTAGTTCCTTGTAAGA
B41: CACACA_negctrl_site1766 (dsDNA)
DNA 1: ACACATATATATATATATATATATATATATATATAT
DNA 2: ATATATATATATATATATATATATATATATATGTGT
B42: CACACA_negctrl_site1721 (dsDNA)
DNA 1: TTATATTTATATGTAATACAAAATAACAAAAAATTT
DNA 2: AAATTTTTTGTTATTTTGTATTACATATAAATATAA
B43: CACACA_negctrl_site1085 (dsDNA)
DNA 1: TATATTCAAAAAAATTCATTTCTGATTTTTTTTTTT
DNA 2: AAAAAAAAAAATCAGAAATGAATTTTTTTGAATATA
B44: CACACA_negctrl_site1520 (dsDNA)
DNA 1: TCTTAAATTATGATAAAATATAATAAATAAATAAAT
DNA 2: ATTTATTTATTTATTATATTTTATCATAATTTAAGA

target: T1, AP2-HC D1 (Plasmodium falciparum, UniProt Q8IKR9 1316-1374); assay: gcPBM; about 25 ug protein; PBS, 1% milk, 0.2 mg/ml BSA, salmon testes DNA, 0.03% Triton X-100; conditions: tags: N-terminal GST (pGEX-4T-1), kept; label: surface-attached array probe
T1 sequence: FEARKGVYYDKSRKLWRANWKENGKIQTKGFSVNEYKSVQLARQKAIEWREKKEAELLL

Row | Binder | binding signal
1 | B1 | 9.42 ln median PBM intensity, better of two orientations
2 | B2 | 9.37 ln median PBM intensity, better of two orientations
3 | B3 | 9.36 ln median PBM intensity, better of two orientations
4 | B4 | 9.38 ln median PBM intensity, better of two orientations
5 | B5 | 9.39 ln median PBM intensity, better of two orientations
6 | B6 | 9.41 ln median PBM intensity, better of two orientations
7 | B7 | 9.34 ln median PBM intensity, better of two orientations
8 | B8 | 9.43 ln median PBM intensity, better of two orientations
9 | B9 | 9.39 ln median PBM intensity, better of two orientations
10 | B10 | 9.4 ln median PBM intensity, better of two orientations
11 | B11 | 9.44 ln median PBM intensity, better of two orientations
12 | B12 | 9.35 ln median PBM intensity, better of two orientations
13 | B13 | 9.34 ln median PBM intensity, better of two orientations
14 | B14 | 9.39 ln median PBM intensity, better of two orientations
15 | B15 | 9.43 ln median PBM intensity, better of two orientations
16 | B16 | 9.44 ln median PBM intensity, better of two orientations
17 | B17 | 9.32 ln median PBM intensity, better of two orientations
18 | B18 | 9.33 ln median PBM intensity, better of two orientations
19 | B19 | 9.36 ln median PBM intensity, better of two orientations
20 | B20 | 9.44 ln median PBM intensity, better of two orientations
21 | B21 | 9.38 ln median PBM intensity, better of two orientations
22 | B22 | 9.43 ln median PBM intensity, better of two orientations

Row | Binder | binding signal
23 | B23 | 9.38 ln median PBM intensity, better of two orientations
24 | B24 | 9.36 ln median PBM intensity, better of two orientations
25 | B25 | 9.32 ln median PBM intensity, better of two orientations
26 | B26 | 9.44 ln median PBM intensity, better of two orientations
27 | B27 | 9.4 ln median PBM intensity, better of two orientations
28 | B28 | 9.45 ln median PBM intensity, better of two orientations
29 | B29 | 9.44 ln median PBM intensity, better of two orientations
30 | B30 | 9.33 ln median PBM intensity, better of two orientations
31 | B31 | 9.35 ln median PBM intensity, better of two orientations
32 | B32 | 9.41 ln median PBM intensity, better of two orientations
33 | B33 | 9.34 ln median PBM intensity, better of two orientations
34 | B34 | 9.38 ln median PBM intensity, better of two orientations
35 | B35 | 9.37 ln median PBM intensity, better of two orientations
36 | B36 | 9.36 ln median PBM intensity, better of two orientations
37 | B37 | 9.42 ln median PBM intensity, better of two orientations
38 | B38 | 9.34 ln median PBM intensity, better of two orientations
39 | B39 | 9.39 ln median PBM intensity, better of two orientations
40 | B40 | 9.42 ln median PBM intensity, better of two orientations
41 | B41 | 9.45 ln median PBM intensity, better of two orientations
42 | B42 | 9.33 ln median PBM intensity, better of two orientations
43 | B43 | 9.44 ln median PBM intensity, better of two orientations
44 | B44 | 9.33 ln median PBM intensity, better of two orientations
